Target: synthetic collagen peptides
Assay: ELISA-like assay: biotin-labeled peptides titrated on plate-immobilized D-CHP, 4-parameter Hill fit

Kd: 10 to 270 nM
Substance: D-CHP, dimeric collagen hybridizing peptide [Ac-(GPO)6-G3]2-K-GK (designed binder)

— patent US20220050116A1
